Values of other authors in publication PMC2695410.

Target: Calmodulin (Bos taurus) (UniProt P62157)

Kd: 480 nM
Substance: Aquaporin 0 C-terminal peptide C-terminus (from UniProt P30301)
